Test results from patent US20210220460.

Key:
[1] = test system: ComP-His (pilin-like protein ComP of A. baylyi with C-6X His tag)
[2] = test system: DsbA1-His of N. meningitidis expressed in A. baylyi (pBAV-dsbA1-His, C-6X His)
[3] = test system: OmpA-His (A1S_1193) expressed in A. baylyi
[4] = test system: PilAM2, major type IVa pilin of A. nosocomialis strain M2
[5] = test system: PilA17978-His (pilin of A. baumannii ATCC 17978 with C-terminal hexa-histidine tag)
[6] = test system: OmpA-His (A1S_1193 with C-terminal 5x His tag), expressed in strain M2 backgrounds

Pg1LADP1, general O-OTase of A. baylyi ADP1 (ACIAD0103)
ComP-His electrophoretic mobility, western blot [1]: Pg1LADP1 is not required for ComP post-translational modification
DsbA1-His electrophoretic mobility, western blot of A. baylyi lysates [2]: displayed an increased electrophoretic mobility in the Δpg1LADP1 background relative to wild-type and Δpg1LComP backgrounds
OmpA-His electrophoretic mobility, western blot of A. baylyi lysates [3]: displayed an increased electrophoretic mobility in the Δpg1LADP1 background relative to wild-type and Δpg1LComP backgrounds

Pg1LComP, ComP-specific O-OTase of A. baylyi ADP1 (ACIAD3337)
ComP-His electrophoretic mobility, western blot [1]: pg1LComP (ACIAD3337) is required for ComP modification
glycosylation in E. coli CLM24, western blot with anti-his and anti-glycan antibodies [1]: lower electrophoretic mobility bands that react to the anti-his and anti-glycan antibodies indicate glycosylation of ComP by the C. jejuni LLO
glycosylation in E. coli CLM24 with the S. pneumoniae serotype 14 CPS locus, western blot [1]: Lower electrophoretic mobility bands in panel A that react to both Anti-His and Anti-Glycan antibodies in lane 2 relative to lane 1
heterologous ComP-His electrophoretic mobility, western blot [1]: ComP-His was only modified in A. baylyi ADP1
heterologous PilAM2 electrophoretic mobility, western blot [4]: Pg1LComP was unable to glycosylate the pilins recognized by TfpO
heterologous PilA17978 electrophoretic mobility, western blot [5]: PilA17978 was not glycosylated by Pg1LComP

Pg1LM2, general O-OTase of A. nosocomialis strain M2 (ORF M215_10475)
OmpA-His electrophoretic mobility, western blot; ESI-TOF-MS/MS [6]: OmpA-His from the M2Δpg1L::kan and the M2ΔweeH::kan backgrounds migrated at an increased electrophoretic mobility, consistent with the lack of a post-translational modification

TfpOM2, type four pilin specific O-oligosaccharyltransferase of A. nosocomialis strain M2 (ORF M215_10480)
MS/MS analysis of PilA from surface shear preparations [4]: PilA from the M2ΔtfpO::kanΔpilT::strep mutant was unmodified
